Data from US20220025055A1 (Boehringer Ingelheim, published 2022).
Where a chain is given by its changes, count along the chain named.

T1: human FLT3 (FMS-like tyrosine kinase 3) (human, UniProt P36888 27-993)
T1 sequence (looked up): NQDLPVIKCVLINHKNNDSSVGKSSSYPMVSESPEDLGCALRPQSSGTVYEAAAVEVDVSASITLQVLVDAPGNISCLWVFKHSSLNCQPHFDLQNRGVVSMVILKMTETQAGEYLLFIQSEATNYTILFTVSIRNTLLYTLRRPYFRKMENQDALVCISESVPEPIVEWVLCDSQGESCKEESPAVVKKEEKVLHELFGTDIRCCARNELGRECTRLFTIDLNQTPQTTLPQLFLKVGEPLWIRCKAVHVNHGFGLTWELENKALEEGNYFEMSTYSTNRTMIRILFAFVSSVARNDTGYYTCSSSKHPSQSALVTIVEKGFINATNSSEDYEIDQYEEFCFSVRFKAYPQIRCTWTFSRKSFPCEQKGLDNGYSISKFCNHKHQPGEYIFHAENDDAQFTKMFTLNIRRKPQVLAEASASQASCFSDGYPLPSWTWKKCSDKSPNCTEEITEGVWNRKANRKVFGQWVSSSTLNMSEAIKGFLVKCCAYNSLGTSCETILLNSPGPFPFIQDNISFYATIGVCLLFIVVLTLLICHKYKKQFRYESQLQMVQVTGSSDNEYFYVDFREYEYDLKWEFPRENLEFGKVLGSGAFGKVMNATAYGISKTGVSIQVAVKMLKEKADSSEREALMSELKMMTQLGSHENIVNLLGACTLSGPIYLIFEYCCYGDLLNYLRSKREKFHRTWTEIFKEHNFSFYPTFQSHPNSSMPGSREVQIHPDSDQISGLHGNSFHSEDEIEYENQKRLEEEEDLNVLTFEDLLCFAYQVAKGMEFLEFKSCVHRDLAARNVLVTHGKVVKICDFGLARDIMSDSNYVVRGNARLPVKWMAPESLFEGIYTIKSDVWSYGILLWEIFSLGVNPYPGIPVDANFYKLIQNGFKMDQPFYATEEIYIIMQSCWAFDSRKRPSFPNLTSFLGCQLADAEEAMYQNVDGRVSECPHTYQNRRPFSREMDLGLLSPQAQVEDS

B1: NB1063 (antibody, V domains shown)
VH: EVQLLESGGGLVQPGGSLRLSCAPSGFTFSNYGMAWVRQAPGKGLEWVSSIHSGGGDTYYRDSVKGRFTISRDNSKNTLYLQMNSLRAEDTAVYYCARGRTPTGYYFDHWGQGTMVTVSS
VL: DIQMTQSPSSLSASVGDRVTITCRASEGIHNGLAWYQQKPGKVPKLLIYNANSLHSGVPSRFSGSGSGTDFTLTISSLQPEDVATYFCQQYYDYPLTFGQGTKLEIK
B2: NB1112 (antibody, V domains shown)
VH: B1 VH
VL: B1 VL with N31D
B3: NB1114 (antibody, V domains shown)
VH: B1 VH
VL: B1 VL with N31T
B4: NB1115 (antibody, V domains shown)
VH: B1 VH
VL: B1 VL with N31L
B5: Humanized VH1 x Humanized VL5 (antibody, V domains shown)
VH: B1 VH
VL: EIVMTQSPATLSVSPGERATLSCRASEGIHNGLAWYQQKPGQAPRLLIYNANSLHSGIPARFSGSGSGTEFTLTISSLQSEDFAVYFCQQYYDYPLTFGQGTKLEIK
B6: Humanized VH2 x Humanized VL1 (antibody, V domains shown)
VH: B1 VH with L5V, P24A, S49A, S75A, T78S
VL: B1 VL
B7: Humanized VH4 x Humanized VL1 (antibody, V domains shown)
VH: B1 VH with E1Q, L5V, L11V, G16R, P24A, S49A, V93T
VL: B1 VL
B8: Humanized VH3 x Humanized VL3 (antibody, V domains shown)
VH: B1 VH with L5V, E46V, S75A
VL: B1 VL with D1A, M4L, V43A, G57R, V83F
B9: Humanized VH1 x Humanized VL3 (antibody, V domains shown)
VH: B1 VH
VL: B1 VL with D1A, M4L, V43A, G57R, V83F
B10: Humanized VH4 x Humanized VL5 (antibody, V domains shown)
VH: B1 VH with E1Q, L5V, L11V, G16R, P24A, S49A, V93T
VL: B5 VL
B11: Humanized VH2 x Humanized VL3 (antibody, V domains shown)
VH: B1 VH with L5V, P24A, S49A, S75A, T78S
VL: B1 VL with D1A, M4L, V43A, G57R, V83F
B12: Humanized VH3 x Humanized VL5 (antibody, V domains shown)
VH: B1 VH with L5V, E46V, S75A
VL: B5 VL
B13: Humanized VH3 x Humanized VL1 (antibody, V domains shown)
VH: B1 VH with L5V, E46V, S75A
VL: B1 VL
B14: Humanized VH4 x Humanized VL3 (antibody, V domains shown)
VH: B1 VH with E1Q, L5V, L11V, G16R, P24A, S49A, V93T
VL: B1 VL with D1A, M4L, V43A, G57R, V83F
B15: Humanized VH4 x Humanized VL4 (antibody, V domains shown)
VH: B1 VH with E1Q, L5V, L11V, G16R, P24A, S49A, V93T
VL: B1 VL with V43A, L46R, G57R, D70E, V83F, F87Y
B16: Humanized VH5 x Humanized VL4 (antibody, V domains shown)
VH: B1 VH with L5V, G10V, L11V, R61A, T78S, A88T, V93L
VL: B1 VL with V43A, L46R, G57R, D70E, V83F, F87Y
B17: Humanized VH5 x Humanized VL5 (antibody, V domains shown)
VH: B1 VH with L5V, G10V, L11V, R61A, T78S, A88T, V93L
VL: B5 VL
B18: Humanized VH1 x Humanized VL4 (antibody, V domains shown)
VH: B1 VH
VL: B1 VL with V43A, L46R, G57R, D70E, V83F, F87Y
B19: Humanized VH3 x Humanized VL2 (antibody, V domains shown)
VH: B1 VH with L5V, E46V, S75A
VL: B1 VL with D1A, V43A, V83F, F87Y
B20: Humanized VH5 x Humanized VL1 (antibody, V domains shown)
VH: B1 VH with L5V, G10V, L11V, R61A, T78S, A88T, V93L
VL: B1 VL
B21: Humanized VH1 x Humanized VL2 (antibody, V domains shown)
VH: B1 VH
VL: B1 VL with D1A, V43A, V83F, F87Y
B22: Humanized VH4 x Humanized VL2 (antibody, V domains shown)
VH: B1 VH with E1Q, L5V, L11V, G16R, P24A, S49A, V93T
VL: B1 VL with D1A, V43A, V83F, F87Y
B23: Humanized VH5 x Humanized VL2 (antibody, V domains shown)
VH: B1 VH with L5V, G10V, L11V, R61A, T78S, A88T, V93L
VL: B1 VL with D1A, V43A, V83F, F87Y
B24: Humanized VH5 x Humanized VL3 (antibody, V domains shown)
VH: B1 VH with L5V, G10V, L11V, R61A, T78S, A88T, V93L
VL: B1 VL with D1A, M4L, V43A, G57R, V83F

Each molecule was assayed against T1, human FLT3 (FMS-like tyrosine kinase 3) (assay: cell-based or functional assay).

EC50 in AML5 proliferation assay [pM] | Molecule
118 | B1
270 | B2
201 | B3
135 | B4

Target: T1, human FLT3 (FMS-like tyrosine kinase 3)
Assay: cell-based or functional assay
Remark: another data set of the same source

EC50 in AML5 proliferation assay [pM] | Molecule
97 | B5
80 | B6
82 | B7
51 | B8
105 | B9
98 | B10
91 | B11
70 | B12
76 | B13
91 | B14
95 | B15

Target: T1, human FLT3 (FMS-like tyrosine kinase 3)
Assay: cell-based or functional assay
Remark: another data set of the same source

EC50 of expansion of HLA-DR+CD1c+ cells from primary human bone marrow, 12 days [pM] | Molecule
23 | FLT3 ligand (FLT3L) (from UniProt P49771 27-181)

Target: T1, human FLT3 (FMS-like tyrosine kinase 3)
Assay: cell-based or functional assay
Remark: another data set of the same source

Single dose STAT5-Luc assay, activity relative to NB1016 (chimeric), antibody at 1 nM [%] | Molecule
77 | B16
75 | B17
91 | B18
81 | B19
83 | B20
72 | B21
90 | B22
53 | B23
31 | B24
